Measured values: paper PMC5482197
pKd: −log10 of the molar value. Values belong to the substance of their own block, whether it stands above or below them.

Tests used:
[1] = biological target: recombinant soluble integrin αvβ3 (UniProt P06756); assay: SPR; soluble αvβ3 immobilized on a CM5 sensor chip by amine coupling; WT and mutant FGF2 two-fold serially diluted from 2 μM in HBS-P buffer (0.01 M Hepes, pH 7.4, 0.15 M NaCl, 0.0005% surfactant P20) with 1 mM Mn2+; 50 μl/min, 1.8 min injection, 3 min dissociation; WT: Kd is the average of Kd values of individual curves; K125E: global fit with a conformation-change model, Kd1 used as Kd
[2] = biological target: integrin α5β1 on K562 erythroleukaemia cells, P08648;P05556; assay: cell adhesion assay (K562 cells); conditions: K562 cells (αvβ3-, α5β1+), panel title K562_FGF2_RPMI, read off a plot

UniProt P06756, sequence (P06756 31-1048, chain 1 of 2): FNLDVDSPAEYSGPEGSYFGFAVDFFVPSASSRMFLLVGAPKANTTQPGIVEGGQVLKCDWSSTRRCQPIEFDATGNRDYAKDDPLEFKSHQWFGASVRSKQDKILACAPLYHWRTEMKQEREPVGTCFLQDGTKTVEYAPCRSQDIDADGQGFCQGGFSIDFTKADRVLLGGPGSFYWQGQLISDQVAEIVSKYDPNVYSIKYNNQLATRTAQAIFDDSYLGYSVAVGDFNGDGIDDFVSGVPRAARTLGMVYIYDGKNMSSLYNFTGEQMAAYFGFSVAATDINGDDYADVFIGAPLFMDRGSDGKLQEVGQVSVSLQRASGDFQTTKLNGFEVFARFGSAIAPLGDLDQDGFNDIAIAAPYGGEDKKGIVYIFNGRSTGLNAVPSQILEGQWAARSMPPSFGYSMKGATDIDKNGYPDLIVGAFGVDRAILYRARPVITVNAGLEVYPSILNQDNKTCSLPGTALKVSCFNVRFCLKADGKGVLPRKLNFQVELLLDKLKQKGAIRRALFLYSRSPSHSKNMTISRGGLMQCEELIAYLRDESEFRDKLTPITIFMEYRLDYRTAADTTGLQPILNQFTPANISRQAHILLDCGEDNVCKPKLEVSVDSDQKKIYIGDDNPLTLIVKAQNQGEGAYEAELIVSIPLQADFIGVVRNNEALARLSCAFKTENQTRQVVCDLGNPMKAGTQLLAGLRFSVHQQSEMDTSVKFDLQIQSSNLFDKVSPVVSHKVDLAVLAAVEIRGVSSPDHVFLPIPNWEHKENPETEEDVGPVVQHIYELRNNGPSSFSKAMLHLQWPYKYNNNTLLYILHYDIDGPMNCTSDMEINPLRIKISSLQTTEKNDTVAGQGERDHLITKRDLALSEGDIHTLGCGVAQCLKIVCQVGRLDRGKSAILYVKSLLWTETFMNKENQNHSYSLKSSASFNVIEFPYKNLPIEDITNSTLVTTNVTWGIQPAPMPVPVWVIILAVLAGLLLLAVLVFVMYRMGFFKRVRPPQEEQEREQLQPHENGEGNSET
UniProt P06756, sequence (P05106 27-718, chain 2 of 2, further chain): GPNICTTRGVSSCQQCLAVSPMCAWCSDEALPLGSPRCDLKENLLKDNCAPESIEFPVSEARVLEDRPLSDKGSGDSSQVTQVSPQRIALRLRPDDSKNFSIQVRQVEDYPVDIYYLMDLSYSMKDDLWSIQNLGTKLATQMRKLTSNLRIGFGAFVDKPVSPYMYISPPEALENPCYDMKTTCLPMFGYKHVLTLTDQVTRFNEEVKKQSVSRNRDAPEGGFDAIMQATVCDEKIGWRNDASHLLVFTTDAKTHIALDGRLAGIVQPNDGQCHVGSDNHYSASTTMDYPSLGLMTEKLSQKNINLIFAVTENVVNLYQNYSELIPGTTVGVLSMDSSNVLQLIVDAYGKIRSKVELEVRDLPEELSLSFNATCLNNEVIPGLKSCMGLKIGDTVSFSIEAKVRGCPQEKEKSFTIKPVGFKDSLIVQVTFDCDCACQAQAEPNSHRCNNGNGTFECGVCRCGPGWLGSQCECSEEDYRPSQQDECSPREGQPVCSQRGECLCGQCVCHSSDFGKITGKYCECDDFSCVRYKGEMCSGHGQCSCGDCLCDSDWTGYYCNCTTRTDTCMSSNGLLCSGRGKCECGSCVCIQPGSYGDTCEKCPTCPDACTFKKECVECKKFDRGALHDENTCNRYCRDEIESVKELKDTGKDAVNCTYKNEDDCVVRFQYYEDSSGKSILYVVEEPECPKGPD
wild-type human FGF2 (fibroblast growth factor 2), sequence (P09038 143-288): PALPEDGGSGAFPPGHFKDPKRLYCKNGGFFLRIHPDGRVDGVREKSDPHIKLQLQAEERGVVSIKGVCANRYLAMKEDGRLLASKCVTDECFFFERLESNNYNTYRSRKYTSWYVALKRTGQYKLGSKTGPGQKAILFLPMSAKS

Kd1 (A + B <=> AB, first step of the conformation-change model; used by the paper as the binding Kd) [1]: 1100 nM
Substance: FGF2 K125E mutant (ligand)

pKd [1]: 7.11
Substance: wild-type human FGF2 (fibroblast growth factor 2) (ligand)

response ([2]; FGF2 2.5 µg/ml, parent: est. 63): 27 % adhesion
response ([2]; FGF2 5 µg/ml, parent: est. 84): 68 % adhesion
response ([2]; FGF2 20 µg/ml, parent: est. 85): 89 % adhesion
Substance: wild-type human FGF2 (fibroblast growth factor 2) K39E
